In US20080038735A1:

Biological target: TNFa, P01375
Assay: not stated (told as a known affinity); low affinity dAb, known affinity, lower bound
Conditions: remark: other sources report otherwise

Sequence of TNFa, P01375 (P01375 77-233 limits assumed): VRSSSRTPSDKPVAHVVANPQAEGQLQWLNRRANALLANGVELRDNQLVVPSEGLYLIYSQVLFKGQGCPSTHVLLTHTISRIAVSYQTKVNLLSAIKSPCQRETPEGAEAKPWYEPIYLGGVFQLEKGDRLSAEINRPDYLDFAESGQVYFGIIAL

Kd: > 5 µM
B1: Vk(TAR1-5) (protein)
VL: DIQMTQSPSSLSASVGDRVTITCRASQSIFMNLLWYQQKPGKAPKLLIYNASVLQSGVPSRFSGSGSGTDFTLTISSLQPEDFATYYCQQVVWRPFTFGQGTKVEIKR
modifications: here or on the partner: biotinylated (sites not given)
